In PMC3813734, “Biochemical Characterization of a First Fungal Esterase from Rhizomucor miehei Showing High Efficiency of Ester Synthesis” (PLoS ONE, 2013):

What was measured:
Experiment in all cases: purified protein
Type in all cases: biochemical, Rhizomucor miehei
Details in all cases: 50 mM sodium phosphate pH 6.5, 45 °C, 5 min
purified protein [1] = substrate: CCCCCCCCCC(=O)Oc1ccc([N+](=O)[O-])cc1
purified protein [2] = substrate: CCCCCCCC(=O)Oc1ccc([N+](=O)[O-])cc1
purified protein [3] = substrate: CCCC(=O)Oc1ccc([N+](=O)[O-])cc1
purified protein [4] = substrate: CC(=O)Oc1ccc([N+](=O)[O-])cc1
purified protein [5] = substrate: CCCCCCCCCCCC(=O)Oc1ccc([N+](=O)[O-])cc1
purified protein [6] = substrate: CCCCCC(=O)Oc1ccc([N+](=O)[O-])cc1

B1: RmEstA (Rhizomucor miehei) (protein)
chain: MTVGNPPIHPVYAAAFAAMKERPPIHTLDLKVVRESSEARQLAANIKLPEVIEEDKVVESDGKTLKLTIVRPPGTEDQILPVLIFLHGGGFVFGSKYTHIKPVRDLTVKANVVTVFVDYSLSPEAKFPTAIEEIYAAILWVRENASSLNINAEALAVAGDSAGATLSAAVSIYAKEKGLSAAIKTQVLIYPATAVSHAKYESYKLFGNGDYILSAEDLKFFSNAYLPAPASELNDKLATLELATKADLEGLPPALLFTAESDVLRDEGEKYAQQLAEAGVDVAAVRVLGAVHGFITVPVETPQYRFTINTIVAHLRDIYAKYNA
notes: full-length ORF, 324 residues, no signal peptide predicted; C-terminal His tag (pET-30a(+), NdeI/XhoI); E. coli BL21(DE3); Ni-IDA; 34,989 Da calculated, 34 kDa SDS-PAGE
- Km (purified protein [1]): 280 µM
- kcat/Km (purified protein [1]): 130 M⁻¹ s⁻¹
- Km (purified protein [2]): 820 µM
- kcat/Km (purified protein [2]): 510 M⁻¹ s⁻¹
- Km (purified protein [3]): 170 µM
- kcat/Km (purified protein [3]): 6900 M⁻¹ s⁻¹
- Km (purified protein [4]): 1000 µM
- kcat/Km (purified protein [4]): 370 M⁻¹ s⁻¹
- Km (purified protein [5]): 300 µM
- kcat/Km (purified protein [5]): 60 M⁻¹ s⁻¹
- Km (purified protein [6]): 120 µM
- kcat/Km (purified protein [6]): 8970 M⁻¹ s⁻¹
